Experimental findings from patent publication US20240301064A1 (published 2024) are described below.

Assay [1] deals with T1, human PD-1 (human, UniProt Q15116 25-167, limits assumed).
T1 construct: also called huPD-1
The assay is described as follows: BLI, antibody on AHC tip. For orientation: In BLI a coated tip is dipped into the sample, and binding shifts an interference pattern.

Assay [2] deals with T1, human PD-1. The assay is described as follows: ELISA on coated huPD-1. How it is done: Plates were coated with 2 μg/mL huPD-1 in 1×PBS at 4° C. overnight. Plates were blocked with 1×PBS with 1% BSA. Antibodies were tested in duplicate for binding with a 3-fold, dilution series from 300 nM to 0.4 nM. Signal is background subtracted for coated wells with 2° antibody only. […] PD-1 agonists comprising germline mutations bind to human PD-1.
In general terms: In an ELISA, binding on a coated surface is turned into a signal by an enzyme label.

Another assay has as its target T2, Insulin.
T2 construct: polyreactivity antigen
The assay is described as follows: ELISA on coated insulin, 100 nM antibody.

Assay [3] addresses T1, human PD-1. The assay is described as follows: BLI, antibody on AHC tip, soluble PD-1.

Numbering of substitutions follows the chain as printed.

T1 sequence (Q15116 25-167 limits assumed): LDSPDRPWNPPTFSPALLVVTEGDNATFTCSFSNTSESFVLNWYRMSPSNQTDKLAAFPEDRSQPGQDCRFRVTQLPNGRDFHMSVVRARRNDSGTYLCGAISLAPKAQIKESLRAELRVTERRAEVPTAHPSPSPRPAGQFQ
T2 sequence (P01308 25-54, chain 1 of 2): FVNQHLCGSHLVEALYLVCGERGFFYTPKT
T2 sequence (P01308 90-110, chain 2 of 2): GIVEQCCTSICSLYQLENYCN

B1: PMAB137 (bispecific antibody, human IgG1, kappa)
heavy: EVQLLESGGGLVQPGGSLRLSCAASGFTFSNSAMSWVRQAPGKGLEWVSGITISGGSTYYADSVKGRFTISRDNSKNTLYLQMNSLRAEDTAVYYCARGRGGSGWLDYWGQGTLVTVSSASTKGPSVFPLAPSSKSTSGGTAALGCLVKDYFPEPVTVSWNSGALTSGVHTFPAVLQSSGLYSLSSVVTVPSSSLGTQTYICNVNHKPSNTKVDKKVEPKSCDKTHTCPPCPAPEAAGAPSVFLFPPKPKDTLMISRTPEVTCVVVDVSHEDPEVKFNWYVDGVEVHNAKTKPREEQYNSTYRVVSVLTVLHQDWLNGKEYKCKVSNKALPAPIEKTISKAKGQPREPQVYTLPPSREEMTKNQVSLTCLVKGFYPSDIAVEWESNGQPENNYKTTPPVLDSDGSFFLYSKLTVDKSRWQQGNVFSCSVMHEALHNHYTQKSLSLSPGGGGGSGGGGSGGGGSEVQLLESGGGLVQPGGSLRLSCAASGFTFSDFWMHWVRQAPGKGLEWISYISGDSGYTNYADSVKGRFTISRDNSKNTLYLQMNSLRAEDTAVYYCARDRPYYYYMDVWGKGTTVTVSSGGGGSGGGGSGGGGSGGGGSDIQMTQSPSSLSASVGDRVTITCRASQSVSRSLAWYQQKPGKAPKLLIYAASSLQSGVPSRFSGSGSGTDFTLTISSLQPEDFATYYCQQYKSYPVTFGQGTKVEIK
light: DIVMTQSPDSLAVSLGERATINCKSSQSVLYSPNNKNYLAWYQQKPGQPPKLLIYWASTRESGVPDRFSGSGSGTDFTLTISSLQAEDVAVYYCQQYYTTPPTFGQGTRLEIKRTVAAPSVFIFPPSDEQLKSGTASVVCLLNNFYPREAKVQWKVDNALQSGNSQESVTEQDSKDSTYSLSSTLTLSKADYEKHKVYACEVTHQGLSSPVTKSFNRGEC
Turning to B1, in the assay with human PD-1 [1], the binding result is given as “no binding (tested: 1000 nM)”.

B2: PMAB179 (bispecific antibody, human IgG1, kappa)
heavy: B1 heavy with N31S, S32Y, A33D, G50A, T52S
light: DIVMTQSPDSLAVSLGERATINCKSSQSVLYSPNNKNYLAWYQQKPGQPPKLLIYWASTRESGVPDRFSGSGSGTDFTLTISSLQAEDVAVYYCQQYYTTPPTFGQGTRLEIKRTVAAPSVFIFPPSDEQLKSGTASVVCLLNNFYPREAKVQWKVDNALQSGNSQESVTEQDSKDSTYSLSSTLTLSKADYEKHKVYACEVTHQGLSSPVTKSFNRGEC
Consider B2, for which, in the assay with human PD-1 [1], the binding result was “no binding (tested: 1000 nM)”.

B3: PMAB145 (bispecific antibody, human IgG1, kappa)
heavy: B1 heavy with A33D
light: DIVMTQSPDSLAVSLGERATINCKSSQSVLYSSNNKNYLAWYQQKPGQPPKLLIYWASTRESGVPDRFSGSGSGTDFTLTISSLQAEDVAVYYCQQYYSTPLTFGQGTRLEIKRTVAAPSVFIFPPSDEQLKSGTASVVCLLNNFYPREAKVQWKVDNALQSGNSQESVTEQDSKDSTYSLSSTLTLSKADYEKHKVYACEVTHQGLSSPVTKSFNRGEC
Consider B3, for which the binding result with human PD-1 [1] is reported as “no binding (tested: 1000 nM)”.

B4: PMAB144 (bispecific antibody, human IgG1, kappa)
heavy: B1 heavy with A33D
light: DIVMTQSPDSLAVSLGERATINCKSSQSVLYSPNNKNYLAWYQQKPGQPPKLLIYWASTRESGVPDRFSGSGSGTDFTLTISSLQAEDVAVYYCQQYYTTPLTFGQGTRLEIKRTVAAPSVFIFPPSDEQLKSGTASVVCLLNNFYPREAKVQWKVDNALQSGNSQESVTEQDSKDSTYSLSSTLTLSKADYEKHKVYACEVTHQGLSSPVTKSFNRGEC
Regarding B4, the binding result with human PD-1 [1] is recorded as “no binding (tested: 1000 nM)”.

B5: PMAB233 (antibody, human IgG1, kappa, V domains shown)
VH: QVQLVQSGAEVKKPGASVKVSCKASGYTFTTYYMHWVRQAPGQGLEWMGIIQPSGGSTSYAQKFQGRVTMTRDTSTSTVYMELSSLRSEDTAVYYCASGWVYWGQGTLVTVSS
VL: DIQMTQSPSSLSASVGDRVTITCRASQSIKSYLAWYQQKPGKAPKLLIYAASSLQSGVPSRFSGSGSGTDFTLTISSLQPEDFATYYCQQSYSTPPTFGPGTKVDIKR
As to B5, half-maximal inhibition in the assay with human PD-1 [2] (IC50) required 85.9 nM.

B6: PMAB241 (antibody, human IgG1, kappa, V domains shown)
VH: B5 VH with T28S, T31S
VL: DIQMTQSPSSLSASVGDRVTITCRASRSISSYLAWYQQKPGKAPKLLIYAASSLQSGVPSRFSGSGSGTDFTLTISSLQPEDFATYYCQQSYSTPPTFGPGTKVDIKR
Turning to B6, the IC50 (as a rule, the concentration needed to halve the response being measured) with human PD-1 [2] is 46.4 nM.

B7: PMAB243 (antibody, human IgG1, kappa, V domains shown)
VH: B5 VH with T28S, T31S
VL: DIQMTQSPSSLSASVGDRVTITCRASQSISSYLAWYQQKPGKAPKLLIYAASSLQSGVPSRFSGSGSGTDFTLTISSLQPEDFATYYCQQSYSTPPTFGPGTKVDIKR
In the assay with human PD-1 [2], B7 gave an IC50 of 40.7 nM.

B8: PMAB239 (antibody, human IgG1, kappa, V domains shown)
VH: B5 VH with T28S, T31S
VL: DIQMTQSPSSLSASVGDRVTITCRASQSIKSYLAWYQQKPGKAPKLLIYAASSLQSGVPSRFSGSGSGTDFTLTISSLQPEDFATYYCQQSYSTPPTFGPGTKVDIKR
B8 yielded an IC50 with human PD-1 [2] of 44.7 nM.

B9: PMAB238 (antibody, human IgG1, kappa, V domains shown)
VH: B5 VH with T28S, T31S
VL: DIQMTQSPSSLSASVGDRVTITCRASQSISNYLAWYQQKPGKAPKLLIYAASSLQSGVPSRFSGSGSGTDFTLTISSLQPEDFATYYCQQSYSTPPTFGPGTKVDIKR
As for B9, the IC50 with human PD-1 [2] worked out at 36.4 nM.

B10: PMAB240 (antibody, human IgG1, kappa, V domains shown)
VH: B5 VH with T28S, T31S
VL: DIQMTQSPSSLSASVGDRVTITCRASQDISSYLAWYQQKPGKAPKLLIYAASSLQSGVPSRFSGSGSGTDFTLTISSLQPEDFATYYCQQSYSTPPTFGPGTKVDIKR
As for B10, the IC50 with human PD-1 [2] is 39 nM. This IC50 and that of the molecule before are within 1.5-fold of each other.

B11: PMAB237 (antibody, human IgG1, kappa, V domains shown)
VH: B5 VH
VL: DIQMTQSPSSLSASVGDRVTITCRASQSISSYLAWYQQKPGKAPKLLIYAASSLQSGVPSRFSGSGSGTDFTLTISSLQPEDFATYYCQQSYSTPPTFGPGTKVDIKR
In the assay with human PD-1 [2], B11 came in with an IC50 of 15.9 nM. Against the preceding molecule, the IC50 is about 2.5-fold lower.

B12: PMAB242 (antibody, human IgG1, kappa, V domains shown)
VH: B5 VH with T28S, T31S
VL: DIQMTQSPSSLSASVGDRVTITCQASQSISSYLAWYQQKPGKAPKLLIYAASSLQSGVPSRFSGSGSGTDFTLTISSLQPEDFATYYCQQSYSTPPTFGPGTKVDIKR
In the assay with human PD-1 [2], B12 gave an IC50 of 30.6 nM. This IC50 lies about 1.9-fold higher than the previous one.

B13: PMAB234 (antibody, human IgG1, kappa, V domains shown)
VH: B5 VH
VL: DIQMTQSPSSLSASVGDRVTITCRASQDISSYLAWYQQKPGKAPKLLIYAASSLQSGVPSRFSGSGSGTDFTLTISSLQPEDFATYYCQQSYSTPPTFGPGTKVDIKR
The molecule B13 displayed an IC50 with human PD-1 [2] of 28.1 nM.

B14: PMAB244 (antibody, human IgG1, kappa, V domains shown)
VH: B5 VH with T28S
VL: DIQMTQSPSSLSASVGDRVTITCQASRDIKNYLAWYQQKPGKAPKLLIYAASSLQSGVPSRFSGSGSGTDFTLTISSLQPEDFATYYCQQSYSTPPTFGPGTKVDIKR
As to B14, half-maximal inhibition with human PD-1 [2] (IC50) required 258 nM.

B15: PMAB235 (antibody, human IgG1, kappa, V domains shown)
VH: B5 VH
VL: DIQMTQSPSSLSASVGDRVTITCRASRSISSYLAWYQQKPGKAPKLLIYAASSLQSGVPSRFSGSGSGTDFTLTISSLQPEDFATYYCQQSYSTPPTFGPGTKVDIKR
The molecule B15 showed an IC50 with human PD-1 [2] of 23.2 nM. Against the preceding molecule, the IC50 is about 11-fold lower.

B16: MIAB133 (antibody, human IgG1, kappa)
heavy: EVQLLESGGGLVQPGGSLRLSCAASGFTFSSFWMHWVRQAPGKGLEWISYISGDSGYTNYADSVKGRFTISRDNSKNTLYLQMNSLRAEDTAVYYCARDRPYYYYMDVWGKGTTVTVSSASTKGPSVFPLAPSSKSTSGGTAALGCLVKDYFPEPVTVSWNSGALTSGVHTFPAVLQSSGLYSLSSVVTVPSSSLGTQTYICNVNHKPSNTKVDKKVEPKSCDKTHTCPPCPAPEAAGAPSVFLFPPKPKDTLMISRTPEVTCVVVDVSHEDPEVKFNWYVDGVEVHNAKTKPREEQYNSTYRVVSVLTVLHQDWLNGKEYKCKVSNKALPAPIEKTISKAKGQPREPQVYTLPPSREEMTKNQVSLTCLVKGFYPSDIAVEWESNGQPENNYKTTPPVLDSDGSFFLYSKLTVDKSRWQQGNVFSCSVMHEALHNHYTQKSLSLSPGGGGGSAPTSSSTKKTQLQLEHLLLDLQMILNGINNYKNPKLTRMLTFKFYMPKKATELKHLQCLEEELKPLEEALNLAPSKNFHLRPRDLISDINVIVLELKGSETTFMCEYADETATIVEFINRWITFSQSIISTLT
light: DIQMTQSPSSLSASVGDRVTITCRASQSVSRSLAWYQQKPGKAPKLLIYAASSLQSGVPSRFSGSGSGTDFTLTISSLQPEDFATYYCQQYKSYPVTFGQGTKVEIKRTVAAPSVFIFPPSDEQLKSGTASVVCLLNNFYPREAKVQWKVDNALQSGNSQESVTEQDSKDSTYSLSSTLTLSKADYEKHKVYACEVTHQGLSSPVTKSFNRGEC
notes: also called MIAB133-001
B16 returned an Insulin polyreactivity score with Insulin of 13.2.

B17: MIAB145 (antibody, human IgG1, kappa)
heavy: B16 heavy with S31D
light: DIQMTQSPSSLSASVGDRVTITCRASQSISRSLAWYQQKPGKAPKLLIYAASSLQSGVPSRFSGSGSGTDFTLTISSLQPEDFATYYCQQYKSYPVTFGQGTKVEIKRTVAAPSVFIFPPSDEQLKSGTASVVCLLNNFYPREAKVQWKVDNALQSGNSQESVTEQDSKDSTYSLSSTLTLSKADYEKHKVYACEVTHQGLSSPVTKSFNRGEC
notes: also called MIAB145-001
Take B17: the Insulin polyreactivity score with Insulin turned out to be 4.58.

B18: MIAB146 (antibody, human IgG1, kappa)
heavy: B16 heavy with S31D
light: B16 light with R31S
notes: also called MIAB146-001
In the assay with Insulin, B18 gave an Insulin polyreactivity score of 2.61.

B19: MIAB149 (antibody, human IgG1, kappa)
heavy: B16 heavy with S31D
light: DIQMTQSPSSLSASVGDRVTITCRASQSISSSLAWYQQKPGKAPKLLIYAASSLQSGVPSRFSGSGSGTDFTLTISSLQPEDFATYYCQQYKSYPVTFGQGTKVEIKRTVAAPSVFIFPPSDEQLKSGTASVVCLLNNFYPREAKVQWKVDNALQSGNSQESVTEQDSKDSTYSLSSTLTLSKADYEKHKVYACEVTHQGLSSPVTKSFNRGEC
notes: also called MIAB149-001
For the molecule B19, the Insulin polyreactivity score with Insulin was found to be 3.53.

B20: MIAB136 (antibody, human IgG1, kappa)
heavy: B16 heavy with F32Y, W33A, H35S
light: B16 light
Consider B20, for which the Insulin polyreactivity score with Insulin came out at 75.4.

B21: MIAB137 (antibody, human IgG1, kappa)
heavy: B16 heavy with S31D, I48V, Y50A, D54S, S55G, Y57S, N59Y
light: B16 light
B21 displayed an Insulin polyreactivity score with Insulin of 67.3.

B22: MIAB147 (antibody, human IgG1, kappa)
heavy: B16 heavy with S31D
light: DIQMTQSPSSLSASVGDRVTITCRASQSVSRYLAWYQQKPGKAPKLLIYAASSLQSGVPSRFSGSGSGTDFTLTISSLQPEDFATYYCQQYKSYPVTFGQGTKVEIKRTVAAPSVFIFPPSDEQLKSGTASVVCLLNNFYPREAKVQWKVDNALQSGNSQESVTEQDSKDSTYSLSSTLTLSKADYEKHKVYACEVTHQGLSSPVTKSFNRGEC
notes: also called MIAB147-001
In turn, B22 showed an Insulin polyreactivity score in the assay with Insulin of 3.81.

B23: PMAB204 (bispecific antibody, human IgG1, kappa)
heavy: QVQLVQSGAEVKKPGASVKVSCKASGYTFSDHYMHWVRQAPGQGLEWMGIIAPSGGRTSYAQKFQGRVTMTRDTSTSTVYMELSSLRSEDTAVYYCAADNGHASGWLYYYGMDVWGQGTTVTVSSASTKGPSVFPLAPSSKSTSGGTAALGCLVKDYFPEPVTVSWNSGALTSGVHTFPAVLQSSGLYSLSSVVTVPSSSLGTQTYICNVNHKPSNTKVDKKVEPKSCDKTHTCPPCPAPEAAGAPSVFLFPPKPKDTLMISRTPEVTCVVVDVSHEDPEVKFNWYVDGVEVHNAKTKPREEQYNSTYRVVSVLTVLHQDWLNGKEYKCKVSNKALPAPIEKTISKAKGQPREPQVYTLPPSREEMTKNQVSLTCLVKGFYPSDIAVEWESNGQPENNYKTTPPVLDSDGSFFLYSKLTVDKSRWQQGNVFSCSVMHEALHNHYTQKSLSLSPGGGGGSGGGGSGGGGSEVQLLESGGGLVQPGGSLRLSCAASGFTFSDFWMHWVRQAPGKGLEWISYISGDSGYTNYADSVKGRFTISRDNSKNTLYLQMNSLRAEDTAVYYCARDRPYYYYMDVWGKGTTVTVSSGGGGSGGGGSGGGGSGGGGSDIQMTQSPSSLSASVGDRVTITCRASQSVSRSLAWYQQKPGKAPKLLIYAASSLQSGVPSRFSGSGSGTDFTLTISSLQPEDFATYYCQQYKSYPVTFGQGTKVEIK
light: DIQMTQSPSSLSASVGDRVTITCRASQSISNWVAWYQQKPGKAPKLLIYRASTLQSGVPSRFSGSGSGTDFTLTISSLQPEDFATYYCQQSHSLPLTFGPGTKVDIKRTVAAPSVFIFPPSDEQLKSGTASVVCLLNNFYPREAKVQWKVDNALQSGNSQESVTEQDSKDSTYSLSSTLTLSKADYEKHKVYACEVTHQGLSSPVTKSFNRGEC
For B23, in the assay with human PD-1 [3], the Kd (usually the concentration at which binding is half-saturated) is 1710 nM.

B24: PMAB213 (bispecific antibody, human IgG1, kappa)
heavy: B23 heavy with I50T
light: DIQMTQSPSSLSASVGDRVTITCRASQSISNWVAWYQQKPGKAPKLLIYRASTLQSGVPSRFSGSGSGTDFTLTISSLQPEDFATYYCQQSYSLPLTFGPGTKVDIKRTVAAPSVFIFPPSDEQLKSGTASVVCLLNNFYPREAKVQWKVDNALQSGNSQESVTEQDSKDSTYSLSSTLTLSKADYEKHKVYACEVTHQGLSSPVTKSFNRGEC
In the case of B24, in the assay with human PD-1 [3], the affinity, expressed as Kd, was 1430 nM.

B25: PMAB208 (bispecific antibody, human IgG1, kappa)
heavy: B23 heavy with I50T
light: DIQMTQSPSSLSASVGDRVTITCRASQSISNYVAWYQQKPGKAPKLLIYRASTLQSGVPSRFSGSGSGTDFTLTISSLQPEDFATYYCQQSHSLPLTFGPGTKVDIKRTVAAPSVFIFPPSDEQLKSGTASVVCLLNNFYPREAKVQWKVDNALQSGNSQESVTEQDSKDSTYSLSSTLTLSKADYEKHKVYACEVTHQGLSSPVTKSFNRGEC
As to B25, in the assay with human PD-1 [3], binding was put at a Kd of 553 nM.

B26: PMAB205 (bispecific antibody, human IgG1, kappa)
heavy: B23 heavy with I50T, R57S
light: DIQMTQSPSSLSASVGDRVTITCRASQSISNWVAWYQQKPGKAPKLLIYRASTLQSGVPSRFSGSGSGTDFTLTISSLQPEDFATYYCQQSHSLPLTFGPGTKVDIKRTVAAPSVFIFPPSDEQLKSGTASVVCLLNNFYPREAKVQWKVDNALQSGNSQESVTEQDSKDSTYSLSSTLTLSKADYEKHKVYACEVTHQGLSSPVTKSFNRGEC
Molecule B26 had a dissociation constant Kd with human PD-1 [3] of 795 nM. The Kd values of the last two molecules are within 1.5-fold of each other.

B27: PMAB209 (bispecific antibody, human IgG1, kappa)
heavy: B23 heavy with I50T
light: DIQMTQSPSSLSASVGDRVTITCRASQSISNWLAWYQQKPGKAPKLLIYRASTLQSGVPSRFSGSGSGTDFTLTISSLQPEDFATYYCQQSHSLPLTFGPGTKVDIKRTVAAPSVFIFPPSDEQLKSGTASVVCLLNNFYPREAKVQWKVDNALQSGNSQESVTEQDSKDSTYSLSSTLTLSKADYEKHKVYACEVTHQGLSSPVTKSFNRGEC
In turn, B27 had a Kd with human PD-1 [3] of 687 nM.

B28: PMAB212 (bispecific antibody, human IgG1, kappa)
heavy: B23 heavy with I50T
light: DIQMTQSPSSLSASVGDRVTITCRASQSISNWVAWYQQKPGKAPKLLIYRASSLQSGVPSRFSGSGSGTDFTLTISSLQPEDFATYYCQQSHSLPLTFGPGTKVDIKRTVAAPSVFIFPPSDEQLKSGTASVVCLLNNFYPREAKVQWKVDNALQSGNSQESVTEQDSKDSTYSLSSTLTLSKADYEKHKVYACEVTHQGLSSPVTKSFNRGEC
With B28, binding in the assay with human PD-1 [3] was put at a Kd of 1090 nM.

B29: PMAB211 (bispecific antibody, human IgG1, kappa)
heavy: B23 heavy with I50T
light: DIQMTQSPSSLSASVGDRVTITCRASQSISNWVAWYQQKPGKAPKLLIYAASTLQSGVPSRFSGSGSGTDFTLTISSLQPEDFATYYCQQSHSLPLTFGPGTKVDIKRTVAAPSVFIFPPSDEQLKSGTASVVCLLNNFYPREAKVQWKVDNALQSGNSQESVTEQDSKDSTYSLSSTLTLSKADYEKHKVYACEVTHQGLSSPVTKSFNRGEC
In turn, B29 returned a Kd in the assay with human PD-1 [3] of 1300 nM.

B30: PMAB207 (bispecific antibody, human IgG1, kappa)
heavy: B23 heavy with I50T
light: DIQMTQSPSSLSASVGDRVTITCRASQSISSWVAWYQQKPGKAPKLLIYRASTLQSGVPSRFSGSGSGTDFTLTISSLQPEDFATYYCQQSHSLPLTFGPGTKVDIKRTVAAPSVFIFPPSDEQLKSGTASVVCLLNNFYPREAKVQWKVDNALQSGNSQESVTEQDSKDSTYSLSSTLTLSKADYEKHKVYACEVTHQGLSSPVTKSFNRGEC
B30 came in with a Kd with human PD-1 [3] of 445 nM.

B31: PMAB214 (bispecific antibody, human IgG1, kappa)
heavy: B23 heavy with I50T
light: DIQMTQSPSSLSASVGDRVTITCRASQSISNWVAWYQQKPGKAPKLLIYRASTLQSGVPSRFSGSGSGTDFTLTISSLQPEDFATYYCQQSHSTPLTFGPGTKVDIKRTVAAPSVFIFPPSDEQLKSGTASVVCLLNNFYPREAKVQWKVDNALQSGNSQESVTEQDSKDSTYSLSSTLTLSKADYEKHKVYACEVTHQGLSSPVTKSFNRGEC
In the assay with human PD-1 [3], B31 had a Kd of 8050 nM.

B32: PMAB210 (bispecific antibody, human IgG1, kappa)
heavy: B23 heavy with I50T
light: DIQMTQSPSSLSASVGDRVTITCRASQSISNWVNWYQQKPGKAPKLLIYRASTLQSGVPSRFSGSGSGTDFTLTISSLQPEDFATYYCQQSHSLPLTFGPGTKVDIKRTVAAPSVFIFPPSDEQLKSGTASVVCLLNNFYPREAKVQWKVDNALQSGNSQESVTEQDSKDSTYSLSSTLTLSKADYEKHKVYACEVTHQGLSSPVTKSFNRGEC
For B32, the Kd with human PD-1 [3] worked out at 3130 nM.
